US9212226B2, “Amino acid sequences directed against CXCR4 and other GPCRs and compounds comprising the same” (Ablynx N.V., priority 2008, dated 2015)

B1: 238D2: Nanobody (VHH) raised against human CXCR4, SEQ ID NO: 238 (protein)
VHH: EVQLVESGGGLVQTGGSLRLSCAASGFTFSSYAMSWVRQAPGKGLEWVSGIKSSGDSTRYAGSVKGRFTISRDNAKNMLYLQMYSLKPEDTAVYYCAKSRVSRTGLYTYDNRGQGTQVTVSS
modifications: Nanobody, Nanobody constructs or fragments thereof
B2: 238D4: Nanobody (VHH) raised against human CXCR4, SEQ ID NO: 239 (protein)
VHH: EVQLMESGGGLVQAGGSLRLSCAASGRTFNNYAMGWFRRAPGKEREFVAAITRSGVRSGVSAIYGDSVKDRFTISRDNAKNTLYLQMNSLKPEDTAVYTCAASAIGSGALRRFEYDYSGQGTQVTVSS
modifications: Nanobody, Nanobody constructs or fragments thereof

Biological target: CXCR4 (Homo sapiens, UniProt P61073)
Test: [125I]-238D2 competition binding on membranes from HEK293T cells transiently expressing CXCR4
Procedure: HEK293T cells were maintained at 37° C. in a humidified 5% CO2, 95% air atmosphere in Dulbecco's modified Eagle's medium (DMEM) containing 2 mM L-glutamine, 50 IU/ml penicillin, 50 μg/ml streptomycin, and 10% (v/v) fetal calf serum. Jurkat cells were cultured in a humidified 5% CO2, 95% air atmosphere in a 1:1 mixture of Dulbecco's modified Eagle's medium (DMEM) and Ham's F12 medium containing 2 mM L-glutamine, 50 IU/ml penicillin, 50 μg/ml streptomycin, and 10% (v/v) fetal calf serum. […] [^125 I]-Labelling— Radiolabeling of Nanobodies with ^125I was performed using the Iodo-gen method (Pierce, Rockford, Ill.) according to the manufacturer's protocol. ^125I-labeled Nanobodies was separated from free iodine (>99%) using a Sephadex G-25 gel filtration column (Amersham Biosciences, Piscataway, N.J.). […] Competition Binding Assays— Membranes from HEK293T cells transiently expressing CXCR3 or CXCR4 were prepared 48 h after transfection as follows. Cells were washed and scraped from the cell culture dishes with ice-cold PBS containing 1 mm EDTA. The scraped cells were pelleted at 1500×g for 10 min at 4° C. The pellet was washed and then resuspended in ice-cold membrane buffer (15 mM Tris, pH 7.5, 1 mM EGTA, 0.3 mM EDTA, and 2 mM MgCl2). The cell suspension was homogenized by 10 strokes at 1200 rpm using a Teflon-glass homogenizer and rotor and further subjected to three freeze-thaw cycles using liquid nitrogen. Membranes were separated by centrifugation at 40,000 g for 25 min at 4° C. The membrane pellet was washed and resuspended in ice-cold Tris-sucrose buffer (20 mM Tris, pH 7.4, and 250 mM sucrose) and frozen in liquid nitrogen. The total protein was determined using a Bradford assay (Bio-Rad). […] Membranes were then harvested over polyethylenimine (0.5%)-treated Whatman GF/C filter plates and washed three times with ice cold binding buffer containing 500 mM NaCl. Plates were counted by liquid scintillation. Inositol Phosphate Accumulation Assay— 24 hours post transfection with pcDNA3.1-CXCR4 and pcDNA1-HA-mG {alpha} qi5 (see Verzijl et al, 2008 supra), 250.000 cells were seeded into 24-wells plates and labelled overnight using inositol-free minimal essential medium supplemented with 1 μCi myo-[2-^3H]-inositol. The next day, the cells were washed once to remove not incorporated myo-[2-^3H]-inositol. […] In agonist experiments, the cells were directly stimulated with test compounds and LiCl (10 mM) in assay buffer for 2 h at 37° C. The stimulation was stopped by aspirating the stimulation medium and adding ice-cold 10 mM formic acid. The accumulated inositol phosphates were isolated by anion exchange chromatography and counted by liquid scintillation. CRE Reporter Gene Assay— HEK239T cells were transfected with pCRE/β-galactosidase (Chen W, Shields T S, Stork P J S, Cone R D (1995) Anal Biochem 226:349-354) and plasmids (pcDEF3 or pcDNA3.1) encoding the indicated receptors. 40,000 transfected cells per well were seeded into 96 well plates and grown in DMEM supplemented with 10% fetal calf serum. The medium was replaced 32 h after transfection by serum-free DMEM supplemented with 0.5% bovine serum albumin and ligands as indicated. […] The β-galactosidase activity was determined by the measurement of absorption at 420 nm with a PowerwaveX340 plate reader (Bio-Tek Instruments Inc., Winooski, Vt.) after incubation with the assay buffer when the OD420 value for forskolin (3 μM) controls reached 0.4-0.6. Chemotaxis Assay— The chemotactic responsiveness of Jurkat 3D cells was assessed using ChemoTx™ plates (Receptor Technologies Ltd., Oxon, UK) in which a upper cell-containing compartment is separated from a lower chemoattractant-containing compartment by a polyvinylpyrollidone-free polycarbonate filter with 5-μm pores. Cells were harvested, washed and resuspended in RPMI containing 0.5% bovine serum albumin and then loaded to 150,000 cells per well in a volume of 25 μl into the upper compartment of the chemotaxis chamber.

[1] = membranes from HEK293T cells transiently expressing CXCR4, mean ± S.E.M.

Sequence of CXCR4 (P61073 whole entry): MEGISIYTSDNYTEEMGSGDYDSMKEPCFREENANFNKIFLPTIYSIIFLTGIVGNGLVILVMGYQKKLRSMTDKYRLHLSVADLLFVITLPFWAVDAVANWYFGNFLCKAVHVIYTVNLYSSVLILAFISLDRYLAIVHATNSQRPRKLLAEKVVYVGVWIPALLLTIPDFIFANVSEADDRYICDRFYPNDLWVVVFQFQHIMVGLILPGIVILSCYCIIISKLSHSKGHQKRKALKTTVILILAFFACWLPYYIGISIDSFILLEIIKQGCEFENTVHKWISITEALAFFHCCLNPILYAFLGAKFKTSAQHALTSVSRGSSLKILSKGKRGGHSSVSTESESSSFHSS

| Molecule | Displacem. (%) of [125I]-238D2 (maximal displacement) [1] [%] | pKi, [125I]-238D2 [1] | displacement of [125I]-238D2 from CXCR4 ([125I]-238D2 3 nM) |
| --- | --- | --- | --- |
| B1 | 97 ± 6 | 8.41 ± 0.11 | – |
| B2 | 101 ± 1 | – | full displacement |
